Measured values published in patent US20210253725A1 (BIONTECH, published 2021).

Assays:
[1] = biological target: T1, CD134 expressed on the cell surface of HT1080_OX40 cells (human, UniProt P43489 29-277); assay: cell-based or functional assay
T1 sequence (looked up): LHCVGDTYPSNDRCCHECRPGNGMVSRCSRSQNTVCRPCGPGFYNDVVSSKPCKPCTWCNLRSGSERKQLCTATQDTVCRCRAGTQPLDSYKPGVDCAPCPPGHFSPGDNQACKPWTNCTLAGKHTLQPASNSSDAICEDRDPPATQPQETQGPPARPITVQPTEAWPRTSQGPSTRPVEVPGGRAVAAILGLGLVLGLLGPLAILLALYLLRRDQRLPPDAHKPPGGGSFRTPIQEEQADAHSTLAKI

[2] = biological target: T1, CD134 expressed on the cell surface of …; assay: HT1080_OX40 cells, imaging; further: test concentration or dose not given here
[3] = biological target: T1, CD134 expressed on the cell surface of …; assay: cell-based or functional assay; remark: listed apart in the source
[4] = biological target: T2, CD134 protein (His-tagged, Sino Biological Inc. 10481-H08H) (human, UniProt P43489 29-216); assay: ELISA, coated His-tagged CD134; further: test concentration or dose not given here
T2 construct: bought protein coated on ELISA plates; also called OX40; TNFRSF4; not shown: His tag
T2 sequence (looked up): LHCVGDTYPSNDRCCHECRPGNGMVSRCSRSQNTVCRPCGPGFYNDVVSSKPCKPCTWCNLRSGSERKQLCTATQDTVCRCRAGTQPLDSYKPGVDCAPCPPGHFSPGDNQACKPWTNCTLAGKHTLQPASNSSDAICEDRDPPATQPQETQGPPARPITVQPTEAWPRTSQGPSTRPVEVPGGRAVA
Wherever Functional assay Cross-linked by F(ab′)2 fragment IL-8 is given: test concentration or dose not given here.
Wherever Functional assay IL-8 is given: test concentration or dose not given here.

B1: P018.S.12.A.C01 (antibody, V domains shown)
VH: QEQLKESGGGLVTPGGTLTLTCTASGFTFSSHAMGWVRQAPGKGLEWIGKIYDDGTTFYANWAKGRFTISRTSTTVDLKMTSLTTEDTATYFCLRGYNSGFNFWGQGTLVTVSS
VL: AQVLTQTPASVSAAVGGTVTISCQSSESVYNNNFLAWYQQKPGQPPKLLIYLASTLASGVPSRFSGSGSGTEFTLTISDLDSDDAATYYCAGGYDDNVYGFGGGTEVVVK
notes: V regions on human Ig constant parts; also called AB134_61
[1]
  Functional assay Cross-linked by F(ab′)2 fragment IL-8: 2.06 abs. corr.
  Functional assay IL-8: -0.026 abs. corr.
[2]
  Cellular binding assay [RFU]: 496 RFU
[3]
  EC 50 (IL-8 release, cross-linked): 0.431 µg/mL
[4]
  ELISA [abs. corr.]: 2.49 abs. corr.

B2: P018.S.12.A.D05 (antibody, V domains shown)
VH: QEQLKESGGGVVTPGGTLTLTCTASAFSLNHYNIQWVRQAPGKGLEWIGWILTDGTEYYANWAKGRFTISKTSTTVDLKIASPTTEDTATYFCAREGDWGVDSLWGPGTLVTVSS
VL: ALVMTQTPSPVSAAVGGTVTISCQSSQSVDNNDFLSWYQQKPGQPPKLLIYLASKLASGVPSRFSGSGSGTQFTLTISGVQSDDAATYYCKGLYFDSGWYAAFGGGTEVVVE
notes: V regions on human Ig constant parts; also called AB134_70
[1]
  Functional assay Cross-linked by F(ab′)2 fragment IL-8: 2.15 abs. corr.
  Functional assay IL-8: -0.007 abs. corr.
[2]
  Cellular binding assay [RFU]: 451 RFU
[3]
  EC 50 (IL-8 release, cross-linked): 2.4 µg/mL
[4]
  ELISA [abs. corr.]: 2.13 abs. corr.

B3: P018.S.12.A.B05 (antibody, V domains shown)
VH: QQQLVESGGGLVKPGASLTLTCKASGFFFSGSYYMCWVRQAPGKGLEWIACIYTGSDDDTNYASWAKGRFTISKTSSTTVTLQMTSLTAADTATYFCARRNYDTDWGGDLWGPGTLVTVSS
VL: AVVLTQTPASVEAAVGGTVTIKCQASQSIGSSLAWYQQKPGQRPKLLIYYASNLASGVSSRFKGSGSGTQFTLTISDLESADAATYYCQCTYTSSDYLDAFGGGTEVVVK
notes: V regions on human Ig constant parts; also called AB134_59
[1]
  Functional assay Cross-linked by F(ab′)2 fragment IL-8: 2.15 abs. corr.
  Functional assay IL-8: 0.96 abs. corr.
[2]
  Cellular binding assay [RFU]: 536 RFU
[3]
  EC 50 (IL-8 release, cross-linked): 0.102 µg/mL
[4]
  ELISA [abs. corr.]: 2.1 abs. corr.

B4: P018.S.11.A.A06 (antibody, V domains shown)
VH: QEQLVESGGGLVQPEGSLTLTCKASGFSFSSANCMHWVRQAPEKGLQWIGCVCIGDGTTYYASWVNGRFSISATSSTTVTIQMTSLTAADTATYFCARDLGLWGPGTLVTVSS
VL: AIVMTQTPSSKSVPVGDTVTINCQASESVDKYTQCSWYQQKPGQPPKLLIYYASTLASGVPSRFKGSGSGTQFTLTISDVVSDDAATYYCSGYKGGSADMIAFGGGTELVVT
notes: V regions on human Ig constant parts; also called AB134_23
[1]
  Functional assay Cross-linked by F(ab′)2 fragment IL-8: 2.16 abs. corr.
  Functional assay IL-8: 0.732 abs. corr.
[2]
  Cellular binding assay [RFU]: 537 RFU
[3]
  EC 50 (IL-8 release, cross-linked): 2.09 µg/mL
[4]
  ELISA [abs. corr.]: 1.84 abs. corr.

B5: P018.S.11.A.G03 (antibody, V domains shown)
VH: QSLEESGGRLVTPGTPLTLTCTASGFSLTNYAMNWVRQAPGKGLEWIGFINYDGNTYYANWAKGRFTISRTSTTVDLKITSPTTEDTATYFCARGGDGYTHIPDTFDPWGPGTLVTVSS
VL: AFEMTQTPSSVSVAVGGTVTIKCQASQSIYSYLSWYQQKPGQPPKLLIYYASTLASGVPSRFVGSGSGTQFTLTISGVESADAATYYCQQGYSYSNIDNVFGGGTEMVVK
notes: V regions on human Ig constant parts; also called AB134_43
[1]
  Functional assay Cross-linked by F(ab′)2 fragment IL-8: 2.1 abs. corr.
  Functional assay IL-8: 1.57 abs. corr.
[2]
  Cellular binding assay [RFU]: 450 RFU
[3]
  EC 50 (IL-8 release, cross-linked): 0.894 µg/mL
[4]
  ELISA [abs. corr.]: 2.11 abs. corr.

B6: P018.S.12.A.F03 (antibody, V domains shown)
VH: QSLEESGGRLVAPGTPLTLTCTVSGIDLSRYAMGWVRQAPGKGLEYIGIIDDNDITYFATWAKGRFTISKTSTTLGLKITSPTTEDTATYFCARTADYADYSFGLWGPGTLVTVSS
VL: DVVMTQTPTSVSEPVGGTVTIKCQASENIGNYLAWYQQRPGQRPKLLIYAASNLASGVPSRFKGSGSGTEYALTISDLESDDAATYYCQCTYDDSEYFVFGGGTEVVVK
notes: V regions on human Ig constant parts; also called AB134_79
[1]
  Functional assay Cross-linked by F(ab′)2 fragment IL-8: 2.15 abs. corr.
  Functional assay IL-8: 0.527 abs. corr.
[2]
  Cellular binding assay [RFU]: 485 RFU
[3]
  EC 50 (IL-8 release, cross-linked): 1.63 µg/mL
[4]
  ELISA [abs. corr.]: 2.45 abs. corr.
